Article PMC12101500, “Mechanism of D-type cyclin recognition by the AMBRA1 E3 ligase receptor” (Science Advances, 2025)
Where no end group is shown, it is not given here. [ ]: non-standard residue; d: D form. pT = C[C@@H](OP(=O)(O)O)[C@H](N)C(=O)O

Legend:
[1] = molecular target: DDB1-AMBRA1^WD40 complex (human) (UniProt Q9C0C7); assay: ITC; peptide (100 μM) titrated into AMBRA1^WD40-DDB1 complex (10 μM); 25°C; 50 mM Hepes pH 7.4, 200 mM NaCl, 2 mM MgCl2, 1 mM TCEP; single-site binding model
[2] = molecular target: T1, TSF–cyclin D1 (full-length) (human, UniProt P24385 1-295, phosphothreonine at 286 (found in the reconstituted complex by Western blotting and MS)); assay: cryo-EM structure; DDB1–AMBRA1^WD40–cyclin D1–CDK4EE complex co-expressed in Expi293F and purified (MBP beads, TEV, Strep-tactin, Superdex 200); 0.3 mg/ml; 3.55 Å; conditions: both partners purified
T1 construct: cyclin D1, human; also called Twin-Strep-FLAG–cyclin D1; source: Expi293F, co-transfected; in lysate (pull-downs) and purified in complexes (MBP or GST beads, TEV digestion, Strep-tactin, Superdex 200); not shown: Twin-Strep-FLAG (TSF), N-terminal, kept

DDB1-AMBRA1 WD40 = DDB1-AMBRA1 WD40 (Homo sapiens, UniProt Q16531); assay: ITC

T1 sequence (P24385 whole entry): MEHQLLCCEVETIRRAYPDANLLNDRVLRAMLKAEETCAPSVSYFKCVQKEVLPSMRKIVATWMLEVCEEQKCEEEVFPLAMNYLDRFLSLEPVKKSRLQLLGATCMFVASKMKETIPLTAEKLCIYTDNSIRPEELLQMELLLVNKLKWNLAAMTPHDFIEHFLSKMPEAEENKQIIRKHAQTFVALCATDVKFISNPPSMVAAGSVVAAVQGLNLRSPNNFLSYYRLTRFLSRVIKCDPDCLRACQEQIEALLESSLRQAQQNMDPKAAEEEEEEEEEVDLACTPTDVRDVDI

In the case of “T286-phosphorylated cyclin D1 peptide (residues 284 to 295)”, the Kd [1] is reported as 210 nM.

B1: AMBRA1^WD40 (residues M1 to N204 directly fused to S853 to G1044), MBP removed (domain or fragment, human, UniProt Q9C0C7 1-204, looked up)
chain: MKVVPEKNAVRILWGRERGARAMGAQRLLQELVEDKTRWMKWEGKRVELPDSPRSTFLLAFSPDRTLLASTHVNHNIYITEVKTGKCVHSLIGHRRTPWCVTFHPTISGLIASGCLDGEVRIWDLHGGSESWFTDSNNAIASLAFHPTAQLLLIATANEIHFWDWSRREPFAVVKTASEMERVRLVRFDPLGHYLLTAIVNPSNSNIANTTYRLQWWDFTKFDLPEISNASVNVLVQNCKIYNDASCDISADGQLLAAFIPSSQRGFPDEGILAVYSLAPHNLGEMLYTKRFGPNAISVSLSPMGRYVMVGLASRRILLHPSTEHMVAQVFRLQQAHGGETSMRRVFNVLYPMPADQRRHVSINSARWLPEPGLGLAYGTNKGDLVICRPEALNSG
notes: AMBRA1, human, residues M1 to N204, directly fused to S853; AMBRA1, human, residues S853 to G1044; Same construct as m5, after TEV digestion; the gene was codon optimized; also called AMBRA1 WD40 domain; AMBRA1^WD40 WT; source: Expi293F, co-expressed, purified in complex (MBP beads, TEV digestion, Strep-tactin and/or Superdex 200); not shown: MBP, N-terminal, cleaved
B1: binds [2].

B2: cyclin D1 284-295 (peptide)
chain: Ac-AC[pT]PTDVRDVDI
B2 was tested, and the Kd (DDB1-AMBRA1 WD40) was ~200 nM.
